Experimental data published in patent publication US20100316989A1, “METHOD FOR SCREENING AN […] OF HBV PROLIFERATION BY USING THE INTERACTION BETWEEN HBV CAPSID AND SURFACE PROTEINS BASED ON CELLULAR IMAGING” (KOREA INSTITUTE OF SCIENCE AND TECHNOLOGY, priority 2007, published 2010).

Experiments:
[1] = molecular target: interaction between capsid protein and PreS protein (Hepatitis B virus genotype D subtype ayw, UniProt P03146, F97I/I116L/INS152DR/S87N/V74N); details: serially diluted peptide; Trx-PreS fixed on plate, purified capsid protein; FIG. 5
[2] = test system: interaction between PreS and capsid protein (PreS-PH / Capsid-GFP) in HEK293T cells; type: cell-based; details: 50 μM peptide; transfected HEK293T cells; FIG. 6

RQPTPISPPLRDSHPQAMQWNS (deleted L4b peptide) [PreS derived peptide, PreS derived peptide (ΔL4b peptide; ID; NO: 21]
inhibition of the interaction between capsid protein and PreS protein (OD490) [1]: inhibited the interaction between capsid protein and PreS protein dose-dependently | location of GFP fluorescence image of Capsid-GFP fusion protein (inhibition of interaction) [2]: located not in cell membrane but in cytoplasm of cells
